Data on seven molecules can be found in patent publication US20240287172A1 (SCIRHOM, published 2024).

For one assay, the target named is T1, miR2-FL-WT-FLAG (mouse, UniProt Q80WQ6 1-827).
T1 construct: on MEF-DKO cells
T1 sequence: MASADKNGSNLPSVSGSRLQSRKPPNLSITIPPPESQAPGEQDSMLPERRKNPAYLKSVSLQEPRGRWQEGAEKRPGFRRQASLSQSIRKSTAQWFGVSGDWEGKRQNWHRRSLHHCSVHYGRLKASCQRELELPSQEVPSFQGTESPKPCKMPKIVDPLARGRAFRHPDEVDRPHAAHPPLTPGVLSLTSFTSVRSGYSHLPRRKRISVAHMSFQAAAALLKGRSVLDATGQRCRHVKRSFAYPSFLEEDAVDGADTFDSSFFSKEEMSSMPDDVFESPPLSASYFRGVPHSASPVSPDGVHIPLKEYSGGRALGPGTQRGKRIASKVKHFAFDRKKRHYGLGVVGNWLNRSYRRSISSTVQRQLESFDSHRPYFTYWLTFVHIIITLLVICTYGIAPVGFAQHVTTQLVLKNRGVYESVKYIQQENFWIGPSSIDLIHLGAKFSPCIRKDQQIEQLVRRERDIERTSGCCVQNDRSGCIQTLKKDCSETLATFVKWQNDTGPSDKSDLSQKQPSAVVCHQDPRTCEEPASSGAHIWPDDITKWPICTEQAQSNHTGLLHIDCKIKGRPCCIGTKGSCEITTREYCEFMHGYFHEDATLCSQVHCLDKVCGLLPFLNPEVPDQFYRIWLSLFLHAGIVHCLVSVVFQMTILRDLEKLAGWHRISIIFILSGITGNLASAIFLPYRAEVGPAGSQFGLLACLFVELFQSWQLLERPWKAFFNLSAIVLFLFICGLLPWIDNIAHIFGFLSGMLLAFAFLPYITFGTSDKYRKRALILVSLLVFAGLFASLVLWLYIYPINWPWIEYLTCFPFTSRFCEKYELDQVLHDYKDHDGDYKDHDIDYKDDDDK
Nature of the assay: FACS, MEF-DKO-miR2-FL-WT-FLAG cells. Here is the method:
In brief, immortalized MEF-DKO-EV control cells, MEF-DKO-hiR2-FL-WT-FLAG cells and MEF-DKO-miR2-FL-WT-FLAG cells were harvested with 10 mM EDTA in PBS, washed and resuspended in FACS buffer (PBS, 3% FBS, 0.05% sodium azide), and seeded in Nunc U-bottom 96-well plates (Thermo Fisher Scientific, USA) at approximately 3×10⁵ cells per well. To pellet cells and remove supernatants, the plates were centrifuged at 1,500 rpm and 4° C. for 3 minutes. For primary staining, cells were resuspended in 100 μl per well of either FACS buffer alone (controls), mouse monoclonal anti-FLAG IgG (Sigma-Aldrich, USA) at 3 μg/ml FACS buffer or the antibodies of the invention also at 3 μg/ml FACS buffer and incubated on ice for 1 hour. Afterwards, plates were centrifuged at 1,500 rpm and 4° C. for 3 minutes and washed twice with 200 μl per well of FACS buffer. For secondary staining, cells were spun down and resuspended in 100 μl per well of PE-conjugated goat anti-mouse IgG F(ab′)2 detection fragment (Dianova, Germany) diluted 1:100 in FACS buffer. Protected from light, the cell suspensions were incubated on ice for 1 hour. Plates were then centrifuged at 1,500 rpm and 4° C. for 3 minutes and washed three times with 200 μl per well of FACS buffer. Finally, cells were resuspended in 150 μl per well of FACS buffer and analyzed using a BD Accuri™ C6 Plus flow cytometer (Becton Dickinson, Germany).

Assay [1] deals with T2, dog iRhom2 full length wild type, T7-tagged (dog, UniProt Q00M95 1-827).
T2 construct: whole, on cells; on MEF-DKO cells; also called Dog-iR2-FL-WT-T7
T2 sequence: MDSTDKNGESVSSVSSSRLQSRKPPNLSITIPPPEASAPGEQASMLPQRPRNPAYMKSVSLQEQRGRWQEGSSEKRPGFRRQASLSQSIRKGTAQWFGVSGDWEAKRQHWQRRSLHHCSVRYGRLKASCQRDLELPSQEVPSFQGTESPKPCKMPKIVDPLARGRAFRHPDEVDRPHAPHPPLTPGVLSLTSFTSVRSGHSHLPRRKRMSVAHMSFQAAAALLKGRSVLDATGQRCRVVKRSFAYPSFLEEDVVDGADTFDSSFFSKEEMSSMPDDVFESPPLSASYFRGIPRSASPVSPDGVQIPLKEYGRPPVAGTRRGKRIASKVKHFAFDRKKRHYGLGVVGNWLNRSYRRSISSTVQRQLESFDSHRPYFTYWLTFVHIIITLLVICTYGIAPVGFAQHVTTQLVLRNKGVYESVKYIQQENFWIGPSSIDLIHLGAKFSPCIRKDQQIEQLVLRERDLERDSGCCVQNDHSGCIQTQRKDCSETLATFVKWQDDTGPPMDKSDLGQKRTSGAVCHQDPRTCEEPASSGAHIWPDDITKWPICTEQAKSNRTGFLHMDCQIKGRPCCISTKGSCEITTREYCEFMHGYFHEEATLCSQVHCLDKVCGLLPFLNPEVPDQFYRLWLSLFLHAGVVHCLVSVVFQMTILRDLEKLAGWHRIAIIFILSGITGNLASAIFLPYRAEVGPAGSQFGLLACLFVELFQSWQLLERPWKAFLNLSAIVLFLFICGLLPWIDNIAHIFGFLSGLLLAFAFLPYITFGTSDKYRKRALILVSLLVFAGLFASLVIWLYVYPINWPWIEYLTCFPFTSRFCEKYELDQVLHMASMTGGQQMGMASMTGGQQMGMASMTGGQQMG
Put plainly: FACS, MEF-DKO cells; via representative antibody 16. Here is the method:
In brief, immortalized MEF-DKO-EV control cells, MEF-DKO-rhesus-iR2-FL-WT-T7 cells, MEF-DKO-cyno-iR2-FL-WT-T7 cells, MEF-DKO-dog-iR2-FL-WT-T7 cells and MEF-DKO-rabbit-iR2-FL-WT-T7 cells, as well as their respective iRhom1 counterparts, were harvested with 10 mM EDTA in PBS, washed and resuspended in FACS buffer (PBS, 3% FBS, 0.05% sodium azide), and seeded in Nunc U-bottom 96-well plates (Thermo Fisher Scientific, USA) at approximately 3×10⁵ cells per well. To pellet cells and remove supernatants, the plates were centrifuged at 1,500 rpm and 4° C. for 3 minutes. For primary staining, cells were resuspended in 100 μl per well of either FACS buffer alone (controls), mouse monoclonal anti-T7 IgG (Merck Millipore, USA) at 3 μg/ml FACS buffer or the antibodies of the invention also at 3 μg/ml FACS buffer and incubated on ice for 1 hour.
Afterwards, plates were centrifuged at 1,500 rpm and 4° C. for 3 minutes and washed twice with 200 μl per well of FACS buffer. For secondary staining, cells were spun down and resuspended in 100 μl per well of PE-conjugated goat anti-mouse IgG F(ab′)2 detection fragment (Dianova, Germany) diluted 1:100 in FACS buffer. Protected from light, the cell suspensions were incubated on ice for 1 hour. Plates were then centrifuged at 1,500 rpm and 4° C. for 3 minutes and washed three times with 200 μl per well of FACS buffer. Finally, cells were resuspended in 150 μl per well of FACS buffer and analyzed using a BD Accuri™ C6 Plus flow cytometer (Becton Dickinson, Germany).
(In general: A flow cytometer gives signals particle by particle.)

B1: antibody 48 (antibody, V domains shown)
VH: QVQLQQSGTELVRPGTSVKVSCKASGYAFTNYLIEWVKQRPGQGLEWIGVINPGSGFTKYNEKFKGKATLTADKSSSTVYMHLSSLTSEDSAVYFCARGLYRAMDYWGQGTSVTVSS
VL: DIQMTQSPASQSASLGESVTITCLASQTIATWLAWYQQKPGKSPQLLIYGATTLADGVPSRFSGGGSGTKFSFKISSLQAEDFVSYYCQQLYSTPYTFGGGTKLEIK
notes: mouse IgG, kappa light chain; also called clone #48; purified antibody 48
Take B1: the binding result with miR2-FL-WT-FLAG is “no binding (tested: 3 µg/ml)”; in assay [1], “binds”.

B2: antibody 47 (antibody, V domains shown)
VH: QVQLQQSGAELVRPGTSVKVSCKASGYAFTNYLIEWVKQRPGQGLEWIGVINPGSGFTNYNEKFKGKAILNADKSSSTAYMQLISLTSEDSAVYFCARDLKRAMDHWGQGTSVTVSS
VL: DIQMTQSPASQSASLGESVTITCLASQTIGTWLAWYQQKPGKSPQLLIHAATSLADGVPSRFSGSGSGTKFSFKISSLQAEDFVSYYCQQIYSSPYTFGGGTKLEIK
notes: mouse IgG, kappa light chain; also called clone #47
For the molecule B2, the binding result with miR2-FL-WT-FLAG is recorded as “no binding (tested: 3 µg/ml)”; in assay [1], “binds”.

B3: antibody 50 (antibody, V domains shown)
VH: QVQLQQSGAELVRPGASVKVSCKASGYAFSNYLIEWVKQRPGQGLEWIGVINPGSGFTKYNEKFKGKATLTADKSSSTAYMQLSSLTSEDSAVYFCARGLYRAMDYWGQGTSVTVSS
VL: DIQMTQSPASQSASLGESVTITCLASQTIGTWLAWYQQKPGKSPQLLIYAAASLADGVPSRFSGGGSGTKFSFKISSLQAEDFVNYYCQQIYSTPYTFGGGTKLEIK
notes: mouse IgG, kappa light chain; also called clone #50; purified antibody 50
Turning to B3, the binding result in the assay with miR2-FL-WT-FLAG was “no binding (tested: 3 µg/ml)”; in assay [1] it was “binds”.

B4: antibody 49 (antibody, V domains shown)
VH: QVTLKESGPGILQPSQTLSLTCSFSGFSLSTFGMGVGWIRQPSGKGLEWLAHIWWDDDKYYNPALQSRLTVSKDTAKNQVFLKIANVDTADTAIYYCARVGNYGSNYWYFAVWGTGTTVTVSS
VL: QIVLTQSPAIMSASPGEKVTMTCSASSSVSYMYWYQQKPGSSPRLLIYDTSNLASGVPVRFSGSGSGTSYSLTISRMEAEDAATYYCQQWNSYPLTFGAGTKLELK
notes: mouse IgG, kappa light chain; also called clone #49
B4: the binding result was “no binding (tested: 3 µg/ml)” in the assay with miR2-FL-WT-FLAG and “binds” in assay [1].

B5: antibody 54 (antibody, V domains shown)
VH: QVTLKESGPGILQPSQTLSLTCSFSGFSLSTFGLGVGWIRQPSGKGLECLAHIWWDDDKYSNPALKSRLTISKDTSKNQVFLKIANVDSADTATYFCARILNYGSNYWYFDVWGTGTTVTVSS
VL: QIVLTQSPALMSASPGEKVTMTCSASSSISYMYWYQQKPGSSPRLLIYDTSNLASGVPVRFSGSGSGTSFSLTVSRMEAEDAATYYCQQWNSYPLTFGAGTKLELK
notes: mouse IgG, kappa light chain; also called clone #54
On to B5, for which the binding result with miR2-FL-WT-FLAG is listed as “no binding (tested: 3 µg/ml)”; in assay [1], “binds”.

B6: antibody 56 (antibody, V domains shown)
VH: QVTLKESGPGILQPSQTLSLTCSFSGFSLSTFGMGVGWIRQPSGKGLEWLTNIWWDDDKYYNSVLKSRLTISKDTSKNQVFLKIANVDTADTATYYCARIAAYGSNYWYFDVWGTGTTVTVSS
VL: QIVLTQSPAIMSASPGEKVTMTCSASSSVSYMYWYQQKPGSSPRVLIYDTSNLSSGVPVRFSGSGSGTSYSLTISRMEAEDAATYYCQQWSSYPLTFGAGTKLELK
notes: mouse IgG, kappa light chain; also called clone #56
For the molecule B6, the binding result with miR2-FL-WT-FLAG is given as “no binding (tested: 3 µg/ml)”; in assay [1], “binds”.

B7: antibody 51 (antibody, V domains shown)
VH: QVQLQQSGAELVKPGASVKISCKASGYTFSNYWMNWVKQRPGKGLEWIGQIYPGDGDTKYNGKFKNKATLTADKSSSTAYMQFSSLTSEDSAVYFCARGDLVFVYWGLGTLVTVSA
VL: DVQITQSPSYLAVSPGETITINCRASKNIRKYLAWYQEKPGKTNKLLIYSGSTSQSGVPSRFSGSGSGTDFTLTISSLEPEDFAMYYCQQHNEYPYTFGGGTKLEIK
notes: mouse IgG, kappa light chain; also called clone #51
As for B7, the results for the binding result (in the assay with miR2-FL-WT-FLAG; in assay [1]) were “no binding (tested: 3 µg/ml)” and “binds”, respectively.
